This note sets out measurements from patent US20250115677A1, “Anti-CEA Antibody Drug Conjugates and Methods of Use” (BeiGene Switzerland GmbH, priority 2022, published 2025).

One may read the EC50 as the midpoint of the concentration-response curve. A higher EC50 goes with a less potent agent. A word on the EC50 (read off the curve): it is the concentration giving half of the maximal effect.

Assay [1] has as its target T1, human CEA on cells (MKN45, LOVO, NCI-H2122, LS174T, CT26/CEA) (human, UniProt P06731 35-685).
T1 construct: Full-length human CEA, endogenous on tumour cell lines or transduced; also called native CEA on living cells; huCEA surface protein
T1 sequence: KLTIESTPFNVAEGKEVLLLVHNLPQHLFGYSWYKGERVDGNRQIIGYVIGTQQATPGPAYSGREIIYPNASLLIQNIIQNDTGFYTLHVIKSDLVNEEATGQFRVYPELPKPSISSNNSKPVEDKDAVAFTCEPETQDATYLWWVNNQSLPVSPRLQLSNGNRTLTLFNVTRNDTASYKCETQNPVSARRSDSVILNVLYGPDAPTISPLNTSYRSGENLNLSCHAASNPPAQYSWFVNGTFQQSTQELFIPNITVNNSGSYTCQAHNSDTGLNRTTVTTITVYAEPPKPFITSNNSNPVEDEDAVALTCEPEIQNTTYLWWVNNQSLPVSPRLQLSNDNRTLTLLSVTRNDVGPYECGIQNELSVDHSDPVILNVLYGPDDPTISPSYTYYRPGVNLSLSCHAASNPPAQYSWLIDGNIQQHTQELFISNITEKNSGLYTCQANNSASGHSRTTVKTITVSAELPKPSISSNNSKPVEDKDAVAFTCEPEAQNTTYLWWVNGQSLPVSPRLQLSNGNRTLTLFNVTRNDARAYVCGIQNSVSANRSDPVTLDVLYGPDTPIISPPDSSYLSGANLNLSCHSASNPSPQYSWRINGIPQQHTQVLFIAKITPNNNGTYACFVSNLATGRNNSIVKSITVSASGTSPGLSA
The assay can be described thus: flow cytometry (MFI) on CEA-expressing MKN45 cells. Here is the method: For flow cytometry, CEA-expressing MKN45 cells (10^5 cells/well) were incubated with various concentrations of purified affinity-matured antibodies, followed by binding with Alexa Fluor-647-labeled anti-hu IgG Fc antibody (Cat. No. 409320, BioLegend, USA). Cell fluorescence was quantified using a flow cytometer (Guava easyCyte™ 8HT, Merck-Millipore, USA).

Assay [2] has as its target T1, human CEA on cells (MKN45, LOVO, …). The experiment in a line: flow cytometry on MKN45 cells, BGA5384 premixed with 1.00 ug/ml recombinant soluble CEA (competitor), anti-huFc-APC. The protocol: (§1) The mixtures were then incubated with 2×10^5 CEA-expressing cells, such as MKN45 cells, for 30 minutes at 4° C. The cells were stained with secondary antibody anti-huFc-APC (Cat. No. 409320, BioLegend, USA) and analyzed by flow cytometry.
(In general: In flow cytometry, cells or beads pass a laser one at a time.)

The target is the same in assay [3]. The assay can be described thus: flow cytometry on MKN45 cells, no soluble CEA, anti-huFc-APC. The protocol: as §1
In assay [4] the target is T2, CEACAM6 (bar group in Fig. 9B, flow cytometry) (human, UniProt P40199).
T2 construct: on cells (flow cytometry)
T2 sequence (single chain, looked up): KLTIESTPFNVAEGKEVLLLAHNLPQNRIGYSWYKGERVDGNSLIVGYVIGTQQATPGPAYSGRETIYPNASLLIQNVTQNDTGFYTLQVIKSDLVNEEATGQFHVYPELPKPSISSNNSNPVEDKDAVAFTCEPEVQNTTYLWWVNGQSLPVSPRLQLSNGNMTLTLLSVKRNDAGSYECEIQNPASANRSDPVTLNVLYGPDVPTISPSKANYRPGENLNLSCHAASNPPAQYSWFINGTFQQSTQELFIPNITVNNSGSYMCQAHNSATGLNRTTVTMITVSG
The assay can be described thus: flow cytometry, Alexa Fluor 647 anti-human IgG Fc. Here is the method: (§2) Cell fluorescence was quantified using a flow cytometer (Guava easyCyte™ 8HT, Merck-Millipore, USA). For antigen ELISA, CEACAM1(SEQ ID NO:64) (Cat. No. 10822-H08H, Sino Biological, China), CHIM (SEQ ID NO:63), CEA (SEQ ID NO:55) or CEACAM6 (SEQ ID NO:57) were coated in 96-well plates at a concentration of 10 μg/ml overnight at 4° C.

Assay [5] concerns the target T1, human CEA on cells (MKN45, LOVO, …). The experiment in a line: flow cytometry on MKN45 cells, BGA5384 premixed with 2.00 ug/ml recombinant soluble CEA (competitor), anti-huFc-APC. Here is the method:
as §1

For assay [6], the target named is T3, recombinant human CEACAM6 (AA 1-320, C-terminal 6xHis) (human, UniProt P40199 35-320).
T3 sequence: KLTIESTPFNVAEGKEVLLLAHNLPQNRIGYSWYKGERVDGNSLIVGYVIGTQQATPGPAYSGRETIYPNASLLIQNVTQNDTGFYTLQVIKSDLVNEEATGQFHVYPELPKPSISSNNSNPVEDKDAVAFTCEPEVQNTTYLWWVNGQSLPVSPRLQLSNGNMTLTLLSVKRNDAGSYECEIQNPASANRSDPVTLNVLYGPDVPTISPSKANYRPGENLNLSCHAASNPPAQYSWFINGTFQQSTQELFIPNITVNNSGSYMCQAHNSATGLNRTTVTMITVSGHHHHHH
The assay can be described thus: antigen ELISA, antigen coated at 10 ug/ml, HRP anti-human Fc. The protocol: as §2

Assay [7] concerns the target T4, CEACAM1 (Cat. No. 10822-H08H, Sino Biological) (Homo sapiens (Human), UniProt P13688 35-428).
T4 construct: Bought protein
T4 sequence: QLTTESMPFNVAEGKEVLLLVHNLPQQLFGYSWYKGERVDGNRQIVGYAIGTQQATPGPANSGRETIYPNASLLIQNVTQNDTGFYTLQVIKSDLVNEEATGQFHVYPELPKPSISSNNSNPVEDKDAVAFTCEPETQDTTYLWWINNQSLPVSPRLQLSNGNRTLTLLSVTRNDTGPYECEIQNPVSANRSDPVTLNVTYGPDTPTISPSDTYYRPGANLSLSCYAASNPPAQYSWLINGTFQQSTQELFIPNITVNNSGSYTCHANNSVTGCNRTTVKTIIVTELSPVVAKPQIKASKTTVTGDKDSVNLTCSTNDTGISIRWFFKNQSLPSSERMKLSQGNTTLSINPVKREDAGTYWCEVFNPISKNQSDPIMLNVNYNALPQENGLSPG
The description is as above. Here is the method:
as §2

B1: BGA5384 (antibody, human IgG1, kappa, V domains shown)
VH: QVQLVQSGAEVKKPGASVKVSCKASGYIFTSYYLHWVRQAPGQGLEWIGYINPQTGKTSYAQKFQGRVTMTRDTSTSTVYMELSSLRSEDTAVYYCAREYGNYNYPLDYWGQGTLVTVSS
VL: DIQMTQSPSSLSASVGDRVTITCRASENQYGYLAWYQQKPGKVPKLLIYNYKNLVEGVPSRFSGSGSGTDFTLTISSLQPEDVATYYCQHHLGTPYTFGQGTKVEIKR
notes: BGA6710 with Y57K in VH; human IgG1 format; also called BGA7592-1K
B1 registered an EC50 in assay [1] of 2.92 µg/mL. Also, the entries for the “EC50 (read off the curve)” value in assay [2], in assay [3] and in assay [5] were roughly 2 µg/mL, roughly 0.7 µg/mL and roughly 2 µg/mL, respectively. In addition, the binding result in assay [4], in assay [6] and in assay [7] was “no binding” throughout.
